Experiments:
[1] = target: HLA-A*24:02; experiment: IEDB peptide-MHC binding, purified MHC/competitive/fluorescence; ≥ and ≤ were set here for values at or beyond the usual limits of such assays
[2] = target: HLA-A*02:01; experiment: as above
[3] = target: HLA-A*32:01; experiment: IEDB peptide-MHC binding, purified MHC/competitive/radioactivity; filed as Kd, often an IC50 or EC50 that approximates it; ≥ and ≤ were set here for values at or beyond the usual limits of such assays
[4] = target: HLA-A*68:02; experiment: as above
[5] = target: HLA-A*26:01; experiment: IEDB peptide-MHC binding, purified MHC/direct/fluorescence; filed as Kd, often an IC50 or EC50 that approximates it; ≥ and ≤ were set here for values at or beyond the usual limits of such assays
[6] = target: HLA-B*18:01; experiment: as above
[7] = target: HLA-B*40:01; experiment: as above; details: source organism: Orthohantavirus hantanense
[8] = target: HLA-B*08:01; experiment: IEDB peptide-MHC binding, purified MHC/competitive/radioactivity; filed as Kd, often an IC50 or EC50 that approximates it; ≥ and ≤ were set here for values at or beyond the usual limits of such assays
[9] = target: HLA-A*29:02; experiment: as above
[10] = target: HLA-A*01:01; experiment: as above
[11] = target: HLA-A*26:01; experiment: as above
[12] = target: HLA-A*30:01; experiment: as above
[13] = target: HLA-A*30:02; experiment: as above
[14] = target: HLA-B*39:01; experiment: IEDB peptide-MHC binding, purified MHC/competitive/fluorescence; filed as Kd, often an IC50 or EC50 that approximates it; ≥ and ≤ were set here for values at or beyond the usual limits of such assays
[15] = target: HLA-B*15:01; experiment: IEDB peptide-MHC binding, purified MHC/competitive/radioactivity; filed as Kd, often an IC50 or EC50 that approximates it; ≥ and ≤ were set here for values at or beyond the usual limits of such assays
[16] = target: HLA-A*02:06; experiment: as above
[17] = target: HLA-A*23:01; experiment: as above
[18] = target: HLA-A*24:02; experiment: as above
[19] = target: HLA-B*44:02; experiment: as above; details: source organism: Dengue virus 4 Dominica/814669/1981
[20] = source organism: Zaire ebolavirus
[21] = source organism: Dengue virus 4 Philippines/H241/1956
[22] = source organism: Mammarenavirus guanaritoense
[23] = source organism: Vaccinia virus WR
[24] = source organism: Lymphocytic choriomeningitis virus (strain Armstrong)
[25] = source organism: Dengue virus 3 Martinique/1243/1999
[26] = source organism: Dengue virus 2 Jamaica/1409/1983
[27] = source organism: Vaccinia virus Copenhagen
[28] = source organism: Vaccinia virus
[29] = source organism: SARS coronavirus Tor2
[30] = source organism: Dengue virus 4 Dominica/814669/1981
[31] = source organism: Mammarenavirus machupoense

ARFSGLLIV
IC50 [1, 20]: ≥ 267 µM
IC50 [2, 20]: ≥ 461 µM

AVLFVVTLI
Kd [3, 21]: 1.27 µM

DDDDDIPFP
IC50 [1, 20]: ≥ 124 µM

DDPTDSQDT
IC50 [1, 20]: 69.4 µM

DLSDQIAEL
Kd ([4]; source organism: Homo sapiens): 0.486 µM

DQIGDIIIA
IC50 ([1]; source organism: Variola virus): 0.789 µM

DVSEWDAVY
Kd ([5]; source organism: Salmonella enterica subsp. enterica serovar Paratyphi A str. ATCC 9150): 0.004 µM

EEAIGKVLL
Kd ([6]; source organism: Orthohantavirus hantanense): 1.72 µM
Kd [7]: 0.0137 µM

EFCDMLRLF
Kd [5, 22]: ≥ 20 µM

EKMRRERAA
Kd [8, 23]: 0.00184 µM

ELMYIFAAL
Kd [8, 23]: 0.0304 µM

ELVKVREKQL
Kd ([4]; source organism: Homo sapiens): 4.33 µM

ESFVRKQKY
Kd [9, 24]: ≥ 65.1 µM
Kd [10, 24]: 10.8 µM
Kd [3, 24]: ≥ 77.8 µM
Kd [11, 24]: 4.02 µM
Kd [12, 24]: 12.2 µM
Kd [13, 24]: 3.14 µM

ETQHGTILI
Kd [4, 25]: 0.0215 µM
Kd [11, 25]: 12.2 µM

FQSDIPPLL
Kd ([14]; source organism: Giardia lamblia ATCC 50803): 0.0087 µM

IIFDIYFAI
Kd [3, 23]: 0.000934 µM

IKRGLRTLIL
Kd [8, 26]: 10.3 µM

IMKIGIGVLL
Kd ([8]; source organism: Dengue virus 3 Singapore/8120/1995): 4.31 µM

INREGKVVGL
Kd [8, 25]: 10.9 µM

IYRGVNFAE
IC50 ([1]; source organism: Sudan ebolavirus): 4.97 µM

KLMSGKDVF
Kd [15, 25]: 0.0056 µM
Kd [3, 25]: 0.507 µM

KLNKMTVEL
Kd [3, 23]: 0.00168 µM

KREDQWCGSL
Kd [8, 26]: 7.72 µM

KTRNVIRNI
Kd [3, 23]: 0.319 µM
Kd [12, 23]: 7.18e-05 µM

LEDDRERLK
IC50 ([1]; source organism: Variola virus): 2.28 µM

LLFFLALSI
Kd [15, 27]: 0.134 µM
Kd [3, 27]: 0.5 µM

LTIFSTIIF
Kd [3, 27]: 0.264 µM

LTIPPTAGI
Kd [4, 26]: 0.00207 µM

MEKSSKYYI
IC50 [1, 28]: 1.66 µM
IC50 [2, 28]: ≥ 1680 µM

MIFFNPVSF
Kd [15, 27]: 0.00943 µM
Kd [3, 27]: 0.000462 µM

MMMKRLMFE
Kd [8, 23]: 0.075 µM

MQESGVSKL
Kd ([14]; source organism: Bacillus anthracis str. A0488): 0.0114 µM

MRRGDLPVWL
Kd [8, 26]: 5.8 µM

MTCIAVGGI
Kd [4, 21]: 0.074 µM

MVAGGLLLA
Kd [16, 21]: 0.0176 µM
Kd [4, 21]: 0.0556 µM

NINRLILNF
Kd [3, 23]: 2.63 µM

NITDKIDQI
IC50 [1, 20]: 9.67 µM
IC50 [2, 20]: 25.3 µM

NKKYRCMAL
Kd [8, 23]: 0.00187 µM

NSKVQIGEY
Kd [9, 29]: 2.27 µM
Kd [10, 29]: ≥ 37.7 µM
Kd [17, 29]: ≥ 77.8 µM
Kd [18, 29]: ≥ 34.8 µM
Kd [11, 29]: 0.235 µM
Kd [13, 29]: 0.0572 µM

NTNSVTNIEL
Kd [4, 30]: 0.0388 µM

PSLCRVNNSY
Kd [9, 22]: ≥ 20.1 µM
Kd [10, 22]: 1.22 µM
Kd [3, 22]: 9.85 µM
Kd [11, 22]: 16 µM
Kd [12, 22]: 11.2 µM
Kd [13, 22]: 0.287 µM

QKKKQRSGVL
Kd ([8]; source organism: Dengue virus 1 Brazil/97-11/1997): 1.87 µM

QSIFRFLNI
Kd [3, 23]: 0.299 µM

QVFGSVYTT
Kd [3, 21]: 8.25 µM

RLKQLKRQL
Kd ([16]; source organism: Homo sapiens): ≥ 61.9 µM
Kd ([4]; source organism: Homo sapiens): 8.31 µM

RLMSINRGF
Kd [3, 23]: 0.00299 µM

RQLTKFTDF
Kd [8, 23]: 0.155 µM

RSNTTGKLI
IC50 [1, 20]: 44.1 µM
IC50 [2, 20]: ≥ 805 µM

SDLKYSWKTW
Kd [3, 30]: 0.683 µM
Kd [19]: 1.01 µM

SGIFITDNV
Kd [4, 26]: 0.0121 µM

SHRPVVLTG
IC50 ([1]; source organism: Variola virus): ≥ 71.3 µM

SIRFHIKEL
Kd [8, 23]: 0.000453 µM

SKKFKFNSQ
Kd [8, 23]: 6.99 µM

SKRTKSKIL
Kd [8, 23]: 0.14 µM

SLNFRFENV
Kd [8, 23]: 0.586 µM

SNKYRIKSV
Kd [8, 23]: 0.00266 µM

TSIGKALHQV
Kd [4, 26]: 0.0104 µM

TTANWLWALL
Kd [10, 21]: 12.3 µM
Kd [4, 21]: 0.0045 µM

TVDSSQGSEY
Kd [9, 29]: 0.823 µM
Kd [10, 29]: 0.0157 µM
Kd [17, 29]: ≥ 70 µM
Kd [18, 29]: ≥ 70.3 µM
Kd [11, 29]: 1.07 µM
Kd [13, 29]: 0.414 µM

VDICFWSTI
Kd [9, 31]: ≥ 78.9 µM
Kd [10, 31]: 1.76 µM
Kd [17, 31]: 12.5 µM
Kd [18, 31]: 1.07 µM
Kd [11, 31]: ≥ 77.9 µM
Kd [13, 31]: 5.11 µM

VFYRSGTET
IC50 [1, 27]: ≥ 148 µM

VMLLVHYAI
Kd [3, 21]: 0.0116 µM
Kd [17, 21]: 0.0955 µM
Kd [18, 21]: 0.0544 µM

VTYNCCDDDY
Kd [9, 29]: 4.49 µM
Kd [10, 29]: 0.0326 µM
Kd [17, 29]: ≥ 70 µM
Kd [18, 29]: ≥ 70.3 µM
Kd [11, 29]: 18.5 µM
Kd [13, 29]: 0.08 µM

VVAMRHLSL
Kd [8, 23]: 0.000976 µM

VWLGFIAGL
Kd [9, 29]: 0.0362 µM
Kd [10, 29]: ≥ 78.1 µM
Kd [17, 29]: 7.04 µM
Kd [18, 29]: ≥ 46.9 µM
Kd [11, 29]: ≥ 77.9 µM
Kd [13, 29]: 0.012 µM

YHPVYILPY
Kd ([6]; source organism: Campylobacter jejuni RM1221): 1.43 µM

YLRDHFYNL
Kd [8, 23]: 0.0083 µM

YPHYKSCAL
Kd [8, 23]: 1.01 µM

YTNSVTNIEL
Kd [4, 21]: 0.0198 µM
